Consider two molecules from patent US20260166140A1, “Combinations Involving Epidermal Growth Factor Receptor Tyrosine Kinase Inhibitors For the Treatment of Cancer” (AstraZeneca AB, priority 2022, published 2026).

One assay has as its target T1, HER3 (UniProt P21860 20-643, limits assumed).
T1 construct: also called EGFR HER family protein HER3
Kind of assay: ELISA: antigen coated at 1 ug/mL, antibody dilution series, goat anti-human Fab-HRP, A450; panel Human HER3. For orientation: An ELISA detects its analyte on a solid surface through an enzyme-linked reagent.

Another assay has as its target Ron (CD136) (UniProt Q04912 25-957, limits assumed). As to the kind of experiment: ELISA: antigen coated at 1 ug/mL, antibody dilution series, goat anti-human Fab-HRP, A450; panel Human Ron (CD136).
The target of the next assay is T2, Semaphorin 3a (UniProt Q14563 21-771, limits assumed).
T2 construct: also called Sema 3a
T2 sequence (looked up): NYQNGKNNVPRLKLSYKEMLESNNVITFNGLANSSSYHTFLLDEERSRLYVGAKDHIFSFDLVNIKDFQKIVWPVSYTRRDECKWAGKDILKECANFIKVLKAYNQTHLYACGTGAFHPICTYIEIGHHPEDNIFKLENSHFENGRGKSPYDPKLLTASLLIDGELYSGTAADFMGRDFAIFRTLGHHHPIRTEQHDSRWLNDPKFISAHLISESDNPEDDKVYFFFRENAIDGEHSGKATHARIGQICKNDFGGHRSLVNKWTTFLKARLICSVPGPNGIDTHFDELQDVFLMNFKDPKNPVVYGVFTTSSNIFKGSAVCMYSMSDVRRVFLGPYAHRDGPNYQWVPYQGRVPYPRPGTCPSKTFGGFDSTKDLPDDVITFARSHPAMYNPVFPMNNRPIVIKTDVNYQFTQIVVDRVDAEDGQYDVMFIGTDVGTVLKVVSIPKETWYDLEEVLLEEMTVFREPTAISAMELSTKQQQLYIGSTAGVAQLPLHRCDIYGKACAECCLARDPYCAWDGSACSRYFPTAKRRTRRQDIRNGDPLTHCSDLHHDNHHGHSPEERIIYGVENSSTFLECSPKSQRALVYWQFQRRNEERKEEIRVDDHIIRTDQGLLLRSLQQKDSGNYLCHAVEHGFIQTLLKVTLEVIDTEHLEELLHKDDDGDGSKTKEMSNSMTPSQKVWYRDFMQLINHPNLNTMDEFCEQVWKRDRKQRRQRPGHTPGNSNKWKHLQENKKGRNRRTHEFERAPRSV
Kind of assay: ELISA: antigen coated at 1 ug/mL, antibody dilution series, goat anti-human Fab-HRP, A450; panel Human Sema3a.

The next assay addresses Mouse cMET (recombinant) (mouse, UniProt P16056 25-929, limits assumed). Kind of assay: ELISA: antigen coated at 1 ug/mL, antibody dilution series, goat anti-human Fab-HRP, A450; panel Mouse cMET.
Assay [1] has as its target T3, Human EGFR (recombinant, soluble monomeric) (human, UniProt P00533 25-645).
T3 construct: also called EGFR antigen
As to the kind of experiment: SPR, Biacore T200, antibody captured on anti-human IgG, soluble monomeric antigen as analyte, 25 C. (In general: SPR reads the build-up and loss of mass on a sensor chip optically.)

Assay [2] has as its target T4, Mouse EGFR (recombinant, soluble monomeric) (mouse, UniProt Q01279 25-647).
T4 construct: also called murine EGFR
Described as above.

The target in assay [3] is T5, Cynomolgus monkey EGFR (recombinant, soluble monomeric) (cynomolgus monkey, UniProt P55245 25-645 (rhesus entry)).
T5 construct: also called cyno EGFR
The description is as above.

In the next assay the target is T6, HER2 (UniProt P04626 23-652, limits assumed).
T6 construct: also called EGFR HER family protein HER2
Kind of assay: ELISA: antigen coated at 1 ug/mL, antibody dilution series, goat anti-human Fab-HRP, A450; panel Human HER2.

Assay [4] addresses T7, Human cMET (recombinant, soluble monomeric) (human, UniProt P08581 25-932).
T7 construct: in the HTRF assay it is called the human cMET receptor; also called His-tagged cMET antigen
Kind of assay: ELISA: antigen coated at 1 ug/mL, antibody dilution series, goat anti-human Fab-HRP, A450; panel Human cMET.

The next assay has as its target T8, HER4 (UniProt Q15303 26-649, limits assumed).
T8 construct: also called EGFR HER family protein HER4
T8 sequence (looked up): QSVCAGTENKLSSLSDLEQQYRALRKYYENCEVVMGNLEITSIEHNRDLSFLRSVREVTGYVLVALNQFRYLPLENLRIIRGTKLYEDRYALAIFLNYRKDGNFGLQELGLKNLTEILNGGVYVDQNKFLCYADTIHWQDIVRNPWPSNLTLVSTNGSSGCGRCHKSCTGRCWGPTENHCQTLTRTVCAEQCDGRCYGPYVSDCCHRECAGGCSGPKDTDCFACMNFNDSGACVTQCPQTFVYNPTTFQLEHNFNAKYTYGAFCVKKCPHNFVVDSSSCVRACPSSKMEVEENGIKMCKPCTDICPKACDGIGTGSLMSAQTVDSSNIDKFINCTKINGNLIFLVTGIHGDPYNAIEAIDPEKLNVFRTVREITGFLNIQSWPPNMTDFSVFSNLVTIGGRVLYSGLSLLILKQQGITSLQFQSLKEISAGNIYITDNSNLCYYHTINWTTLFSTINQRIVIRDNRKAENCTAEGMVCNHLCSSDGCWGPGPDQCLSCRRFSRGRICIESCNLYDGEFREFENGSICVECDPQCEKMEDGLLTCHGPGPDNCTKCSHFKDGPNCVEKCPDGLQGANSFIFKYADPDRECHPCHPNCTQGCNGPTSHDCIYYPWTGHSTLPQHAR
Kind of assay: ELISA: antigen coated at 1 ug/mL, antibody dilution series, goat anti-human Fab-HRP, A450; panel Human HER4.

Assay [5] has as its target T9, Cynomolgus monkey cMET (recombinant, soluble monomeric) (cynomolgus monkey, UniProt A0M8R7 25-932 (Papio anubis entry)).
T9 construct: also called cyno cMET
Kind of assay: ELISA: antigen coated at 1 ug/mL, antibody dilution series, goat anti-human Fab-HRP, A450; panel Cynomolgus cMET.

Assay [6] has as its target T7, Human cMET (recombinant, soluble …). As to the kind of experiment: Octet biolayer interferometry, antigen capture format: His-tagged human cMET on NI-NTA sensors, then antibody (66 nM), then human EGFR (500 nM). For orientation: Biolayer interferometry detects binding as a change in optical thickness at a sensor tip.

T9 sequence (A0M8R7 25-932 S170N/I621T): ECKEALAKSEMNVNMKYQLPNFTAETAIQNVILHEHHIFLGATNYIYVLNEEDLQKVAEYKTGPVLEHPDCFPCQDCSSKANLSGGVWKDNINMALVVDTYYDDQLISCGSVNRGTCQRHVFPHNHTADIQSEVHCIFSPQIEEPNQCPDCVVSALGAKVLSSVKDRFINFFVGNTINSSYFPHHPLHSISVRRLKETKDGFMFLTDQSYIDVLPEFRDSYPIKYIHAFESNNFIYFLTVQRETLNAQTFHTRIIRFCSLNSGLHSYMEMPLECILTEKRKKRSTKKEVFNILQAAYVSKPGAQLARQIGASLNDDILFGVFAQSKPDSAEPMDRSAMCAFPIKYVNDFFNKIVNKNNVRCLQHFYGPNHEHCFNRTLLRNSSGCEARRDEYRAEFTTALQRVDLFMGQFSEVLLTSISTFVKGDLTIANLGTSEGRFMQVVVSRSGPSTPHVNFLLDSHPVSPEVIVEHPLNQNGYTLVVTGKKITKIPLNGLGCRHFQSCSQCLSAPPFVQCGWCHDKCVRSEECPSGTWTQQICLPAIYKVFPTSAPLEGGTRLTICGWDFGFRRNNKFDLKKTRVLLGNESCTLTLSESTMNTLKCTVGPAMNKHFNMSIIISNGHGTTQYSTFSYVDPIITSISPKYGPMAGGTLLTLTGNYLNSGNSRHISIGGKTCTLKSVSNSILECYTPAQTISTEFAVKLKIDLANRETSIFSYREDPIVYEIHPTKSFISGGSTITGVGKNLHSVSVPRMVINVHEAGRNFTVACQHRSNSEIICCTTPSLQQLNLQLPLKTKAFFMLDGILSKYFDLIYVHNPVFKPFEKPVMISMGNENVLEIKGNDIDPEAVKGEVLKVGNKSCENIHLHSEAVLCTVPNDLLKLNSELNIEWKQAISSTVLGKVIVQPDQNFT
Sequence of Mouse cMET (recombinant) (P16056 25-929 limits assumed): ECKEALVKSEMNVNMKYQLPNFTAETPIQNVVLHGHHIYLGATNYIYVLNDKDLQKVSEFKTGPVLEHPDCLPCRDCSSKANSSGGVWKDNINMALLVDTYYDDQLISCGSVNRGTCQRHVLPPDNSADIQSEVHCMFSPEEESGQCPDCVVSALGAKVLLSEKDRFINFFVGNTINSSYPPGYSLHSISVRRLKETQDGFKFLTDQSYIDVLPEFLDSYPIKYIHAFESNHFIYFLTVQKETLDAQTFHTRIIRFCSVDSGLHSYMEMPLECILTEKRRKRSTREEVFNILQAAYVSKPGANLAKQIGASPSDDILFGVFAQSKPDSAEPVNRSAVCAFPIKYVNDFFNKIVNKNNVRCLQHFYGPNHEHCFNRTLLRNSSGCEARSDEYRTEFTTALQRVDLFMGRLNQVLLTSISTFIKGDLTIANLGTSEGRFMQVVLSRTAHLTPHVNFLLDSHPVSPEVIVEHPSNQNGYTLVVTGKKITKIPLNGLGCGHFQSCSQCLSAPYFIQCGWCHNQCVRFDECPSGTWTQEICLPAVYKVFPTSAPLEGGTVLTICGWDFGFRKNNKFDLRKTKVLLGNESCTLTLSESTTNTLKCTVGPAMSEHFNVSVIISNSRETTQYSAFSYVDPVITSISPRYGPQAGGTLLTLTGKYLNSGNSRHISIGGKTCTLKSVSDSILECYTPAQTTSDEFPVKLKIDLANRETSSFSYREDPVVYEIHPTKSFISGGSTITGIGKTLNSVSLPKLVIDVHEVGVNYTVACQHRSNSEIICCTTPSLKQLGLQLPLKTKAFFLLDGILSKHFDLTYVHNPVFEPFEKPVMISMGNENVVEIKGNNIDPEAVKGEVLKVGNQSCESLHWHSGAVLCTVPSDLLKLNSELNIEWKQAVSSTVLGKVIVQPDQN
T7 sequence (P08581 25-932): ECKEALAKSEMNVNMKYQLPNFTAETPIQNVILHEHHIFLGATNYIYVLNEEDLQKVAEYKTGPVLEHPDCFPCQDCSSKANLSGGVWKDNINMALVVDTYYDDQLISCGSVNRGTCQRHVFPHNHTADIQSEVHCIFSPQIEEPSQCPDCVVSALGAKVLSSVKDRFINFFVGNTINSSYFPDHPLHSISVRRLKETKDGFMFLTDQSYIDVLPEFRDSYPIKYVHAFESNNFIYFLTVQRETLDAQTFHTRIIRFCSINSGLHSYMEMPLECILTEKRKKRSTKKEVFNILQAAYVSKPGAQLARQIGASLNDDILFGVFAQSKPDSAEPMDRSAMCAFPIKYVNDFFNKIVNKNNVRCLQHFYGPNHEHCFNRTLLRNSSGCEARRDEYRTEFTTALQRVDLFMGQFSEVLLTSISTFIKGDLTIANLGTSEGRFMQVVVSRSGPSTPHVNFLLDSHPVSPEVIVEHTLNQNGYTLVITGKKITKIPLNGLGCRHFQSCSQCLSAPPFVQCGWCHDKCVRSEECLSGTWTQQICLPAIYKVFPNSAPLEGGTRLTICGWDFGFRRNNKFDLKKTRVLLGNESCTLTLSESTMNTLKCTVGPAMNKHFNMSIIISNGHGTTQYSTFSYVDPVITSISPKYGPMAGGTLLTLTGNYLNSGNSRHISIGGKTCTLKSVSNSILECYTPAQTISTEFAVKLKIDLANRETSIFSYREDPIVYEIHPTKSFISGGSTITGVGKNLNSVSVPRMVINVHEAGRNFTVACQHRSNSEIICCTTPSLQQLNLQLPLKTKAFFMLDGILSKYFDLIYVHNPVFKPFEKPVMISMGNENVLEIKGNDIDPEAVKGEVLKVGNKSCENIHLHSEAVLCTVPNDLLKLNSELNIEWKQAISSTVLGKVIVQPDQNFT

B1: RAA22 IgG (antibody, V domains shown)
VH: QVQLVQSGAEVKKPGSSVKVSCKASGGTFSDNDFSWVRQAPGQGLEWMGAIVAVFRTETYAQKFQDRVKITADISTRTTYMELSSLRSEDTAVYYCARRLMSAISGPGAPLLMWGQGTLVTVSS
VL: QSALTQPRSVSGSPGQSVTISCTGTSSDVGGYNYVSWYQQHPGKAPKLMIYDVSKRPSGVPDRFSGSKSGNTASLTISGLQAEDEADYYCSSYTSSDTLEIFGGGTKLTVL
As for B1, the binding result (with HER3; in the assay with Ron (CD136); with Semaphorin 3a; with Mouse cMET (recombinant); in the assay with HER2; in [4]) was “no binding (tested: 10 ug/ml)” throughout. Further, the binding result (in the assay with HER4; in assay [5]) was “no binding (tested: 10 ug/ml)” each time. The Kd in assay [1] came out at 46.6 nM; in assay [2], 488 nM; in assay [3] it was 170 nM. Moreover, the dissociation rate constant (koff) was 0.00206 s⁻¹ in assay [1], 0.019 s⁻¹ in assay [2] and 0.00601 s⁻¹ in [3]. The kon in assay [1] was 44100 M⁻¹ s⁻¹; in [2] it was 40300 M⁻¹ s⁻¹; in assay [3], 35400 M⁻¹ s⁻¹.

B2: QD6 IgG (antibody, V domains shown)
VH: QVQLVQSGAEVKKPGSSVKVSCKASGGTFSDNDFSWVRQAPGQGLEWMGAIVAVVRTETYAQKFQDRVKITADISTRTTYMELSSLRSEDTAVYYCARRLMSAISGPGAPLLMWGQGTLVTVSS
VL: QSALTQPRSVSGSPGQSVTISCTGTSSDVGGYNYVSWYQQHPGKAPKLMIYDVSERPSGVPDRFSGSKSGNTASLTISGLQAEDEADYYCFSYTSSDTLEIFGGGTKLTVL
notes: also called anti-EGFR antibody clone QD6
With B2, the binding result in the assay with HER3, with Ron (CD136), in the assay with Semaphorin 3a, with Mouse cMET (recombinant), with HER2 and with HER4 was “no binding (tested: 10 ug/ml)” throughout. The binding result is “no binding (tested: 66 nM)” in [6] and “no binding (tested: 10 ug/ml)” in [5]. The Kd in assay [1] came to 2 nM; in assay [2], 4.4 nM; in assay [3] it was 2.5 nM. The koff in assay [1] stood at 0.000292 s⁻¹; in [2] it was 0.000735 s⁻¹; in [3] it was 0.000288 s⁻¹. For the same molecule, the kon in assay [1] was found to be 148000 M⁻¹ s⁻¹; in [2], 167000 M⁻¹ s⁻¹; in assay [3] it was 114000 M⁻¹ s⁻¹.

Broadly, the Kd is the concentration at which binding is half-saturated. As usually defined, the koff is the rate constant with which the complex falls apart. In general, kon refers to a measure of how fast the partners come together.
